Assay results as given in patent US9018171B2, “Uses of an immunomodulatory protein (GMI) from Ganoderma microsporum” (Mycomagic Biotechnology Co., Ltd., priority 2010, dated 2015).
“Also recorded” adds a separate entry of the source.

Tests used:
SK-MEL-5 = test: NCI60 in vitro screening, Melanoma; format: cell-based
LOX IMVI = test: NCI60 in vitro screening, Melanoma; format: cell-based; conditions: one dose
OVCAR-5 = test: NCI60 in vitro screening, Ovarian Cancer; format: cell-based
EGFR = test: Western blotting, EGF-induced phosphorylation; format: cell-based, human; conditions: A549 cells, pretreated 8 h, EGF 10 minutes
Experimental: (§1) A549 cells (5×10^5 cells/60 mm) were pretreated with various concentrations of GMI (4, 16 μg/ml) or AG1478 (EGFR inhibitors) for 8 hours prior to incubation for 10 minutes with EGF (as indicated). Cell lysates were subject to immunoblotting with phospho-specific EGFR (Y1068) (A and B), anti-phospho-AKT (A), anti-AKT (A), anti-phospho-GSK3β (A) or anti-phospho-STAT3 antibodies (B). Protein loading was determined by Western blotting against β-actin (A and B).
(§2) Total cell lysates were prepared in RIPA buffer (100 μl in 60 mm in dish). Fifty μg of lysate were loaded onto an 8% polyacrylamide gel and analyzed by SDS gel electrophoresis. After transfer to PVDF (Amersham), blots were blocked with 5% skim milk in TBS (10 mM Tris-CL pH7.5, 150 mM NaCl) containing 0.2% Tween-20. Blots were probed with antibodies (at their recommended dilutions) in 5% skim milk in TBS overnight at 4° C. Following detection with the appropriate horseradish-peroxidase conjugated secondary antibody (Cell Signaling), blots were developed by enhanced chemiluminescence according to the manufacturer's directions (Perkin Elmer Life Sciences). All experiments were performed in duplicate.
(§3) To assess whether GMI mediates and/or inhibits phosphorylation of Akt and Stat3, the invention investigated the effect of GMI on the phosphorylation status of Akt and Stat3 in A549 cells treated with various concentrations of GMI for 8 h.

Stat3 = test: Western blotting, EGF-induced phosphorylation; format: cell-based, human; conditions: A549 cells, pretreated 8 h, EGF 10 minutes
Experimental: as §1, §2, §3

Akt = test: Western blotting, EGF-induced phosphorylation; format: cell-based, human; conditions: A549 cells, pretreated 8 h, EGF 10 minutes
Experimental: as §1, §2, §3

SF-268 = test: NCI60 in vitro screening, CNS Cancer; format: cell-based
SK-OV-3 = test: NCI60 in vitro screening, Ovarian Cancer; format: cell-based
MDA-MB-435 = test: NCI60 in vitro screening, Melanoma; format: cell-based
Cdc42 = test: Rac1 and Cdc42 activity assay (pull-down); format: cell-based, human; conditions: A549 cells, GMI 4, 16 μg/ml 24 h, 10 ng/mL EGF 3 min
Experimental: (§4) A549 cells were seeded onto 100 mm plates and cultured to around 80% confluence. The cells were then treated with various doses of GMI (4, 16 μg/ml). […] A549 cells were pretreated with various concentrations of GMI for 24 h before being stimulated with 10 ng/mL EGF for 3 min. After that, cells were washed with cold PBS and lysated on the dish in RIPA buffer. Active GTP-bound Rac1 or Cdc42 was pulled down using the GST-PBD fusion protein of PAK1 immobilized on glutathione beads and active Rac1 and Cdc42 were detected with anti-Rac1 and anti-Cdc42 antibodies.
(§5) Active Rac1 and Cdc42 were determined by pull-down assay (Binker et al., 2009, Biochem Biophys Res Commun, 379, 445-450). Serum-starved A549 cells were or were not stimulated for 3 min with EGF and then collected in 800 μl of ice-cold lysis-buffer. Lysates were centrifuged to remove cellular debris. From each supernatant, 5 μl were taken out to measure protein content using Protein Assay Kit (Bio-Rad, Hercules, Calif.). Twenty μl were removed to determine total Rac1 in total lysate, and the remaining volume was used for the pull-down assay. Lysates containing equal amounts of proteins were then mixed with 15 μg of GST-PAK-PBD-beads (Pierce). Samples for total Rac1 and Cdc42 in total lysate and the pelleted beads were diluted in Laemmli sample-buffer and boiled. The proteins were separated using SDS-PAGE (12% gel). […]

Rac1 = Rac1 and Cdc42 activity assay (pull-down); format: cell-based, human; conditions: A549 cells, GMI 4, 16 μg/ml 24 h, 10 ng/mL EGF 3 min
Experimental: as §4, §5

MOLT-4 = test: NCI60 in vitro screening, Leukemia; format: cell-based
OVCAR-3 = test: NCI60 in vitro screening, Ovarian Cancer; format: cell-based
OVCAR-4 = test: NCI60 in vitro screening, Ovarian Cancer; format: cell-based

B1: GMI: immunomodulatory protein from Ganoderma microsporum, amino acid sequence SEQ ID NO: 3, manufactured by Mycomagic Biotechnology Co., Ltd. (protein, listed as Ganoderma microsporum)
chain: MSDTALIFTLAWNVKQLAFDYTPNWGRGRPSSFIDTVTFPTVLTDKAYTYRVVVSGKDLGVRPSYAVESDGSQKINFLEYNSGYGIADTNTIQVYVIDPDTGNNFIVAQWN
TGI (SK-MEL-5; SK-MEL-5): 4.26E1 | Percent Growth (SK-MEL-5; SK-MEL-5, Log10 Concentration 0.1): 103% | Percent Growth (SK-MEL-5; SK-MEL-5, Log10 Concentration 1.1): 94% | Percent Growth (SK-MEL-5; SK-MEL-5, Log10 Concentration 2.1): −83% | Percent Growth (SK-MEL-5; SK-MEL-5, Log10 Concentration −0.9): 101% | Percent Growth (SK-MEL-5; SK-MEL-5, Log10 Concentration −1.9): 101% | Growth Percent (SK-MEL-5; SK-MEL-5, one dose): 83.26% | GI50 (SK-MEL-5; SK-MEL-5, in µg/mL): 2.22E1 | LC50 (SK-MEL-5; SK-MEL-5, in µg/mL): 8.17E1 | Growth Percent (LOX IMVI): 67.70% | TGI (OVCAR-5; OVCAR-5): >1.25E2 | Percent Growth (OVCAR-5; OVCAR-5, Log10 Concentration 0.1): 98% | Percent Growth (OVCAR-5; OVCAR-5, Log10 Concentration 1.1): 89% | Percent Growth (OVCAR-5; OVCAR-5, Log10 Concentration 2.1): 66% | Percent Growth (OVCAR-5; OVCAR-5, Log10 Concentration −0.9): 100% | Percent Growth (OVCAR-5; OVCAR-5, Log10 Concentration −1.9): 101% | Growth Percent (OVCAR-5; OVCAR-5, one dose): 107.85% | EGF-induced activation (phosphorylation) of EGFR (EGFR): significantly inhibits | EGF-induced activation (phosphorylation) of Stat3 (Stat3): little effect | EGF-induced activation (phosphorylation) of Akt (Akt): significantly inhibits | TGI (SF-268; SF-268): >1.25E2 | Percent Growth (SF-268; SF-268, Log10 Concentration 0.1): 108% | Percent Growth (SF-268; SF-268, Log10 Concentration 1.1): 52% | Percent Growth (SF-268; SF-268, Log10 Concentration 2.1): 4% | Percent Growth (SF-268; SF-268, Log10 Concentration −0.9): 101% | Percent Growth (SF-268; SF-268, Log10 Concentration −1.9): 95% | Growth Percent (SF-268; SF-268, one dose): 39.72% | GI50 (SF-268; SF-268, in µg/mL): 2.02E1 | TGI (SK-OV-3; SK-OV-3): >1.25E2 | Percent Growth (SK-OV-3; SK-OV-3, Log10 Concentration 0.1): 107% | Percent Growth (SK-OV-3; SK-OV-3, Log10 Concentration 1.1): 94% | Percent Growth (SK-OV-3; SK-OV-3, Log10 Concentration 2.1): 55% | Percent Growth (SK-OV-3; SK-OV-3, Log10 Concentration −0.9): 103% | Percent Growth (SK-OV-3; SK-OV-3, Log10 Concentration −1.9): 103% | Growth Percent (SK-OV-3; SK-OV-3, one dose): 89.18% | TGI (MDA-MB-435; MDA-MB-435): >1.25E2 | Percent Growth (MDA-MB-435; MDA-MB-435, Log10 Concentration 0.1): 91% | Percent Growth (MDA-MB-435; MDA-MB-435, Log10 Concentration 1.1): 85% | Percent Growth (MDA-MB-435; MDA-MB-435, Log10 Concentration 2.1): 3% | Percent Growth (MDA-MB-435; MDA-MB-435, Log10 Concentration −0.9): 96% | Percent Growth (MDA-MB-435; MDA-MB-435, Log10 Concentration −1.9): 101% | Growth Percent (MDA-MB-435; MDA-MB-435, one dose): 79.29% | GI50 (MDA-MB-435; MDA-MB-435, in µg/mL): 3.34E1 | EGF-promoted Cdc42 activity (Cdc42): inhibits Cdc42 activation; also recorded: reduced EGF-promoted Cdc42 activity in a dose-dependent manner | EGF-promoted Rac1 activity (Rac1): little effect on Rac1; also recorded: little reduction in Rac1 activity | TGI (MOLT-4; MOLT-4): >1.25E2 | Percent Growth (MOLT-4; MOLT-4, Log10 Concentration 0.1): 103% | Percent Growth (MOLT-4; MOLT-4, Log10 Concentration 1.1): 62% | Percent Growth (MOLT-4; MOLT-4, Log10 Concentration 2.1): 1% | Percent Growth (MOLT-4; MOLT-4, Log10 Concentration −0.9): 97% | Percent Growth (MOLT-4; MOLT-4, Log10 Concentration −1.9): 95% | Growth Percent (MOLT-4; MOLT-4, one dose): 44.75% | GI50 (MOLT-4; MOLT-4, in µg/mL): 1.99E1 | TGI (OVCAR-3; OVCAR-3): >1.25E2 | Percent Growth (OVCAR-3; OVCAR-3, Log10 Concentration 0.1): 108% | Percent Growth (OVCAR-3; OVCAR-3, Log10 Concentration 1.1): 85% | Percent Growth (OVCAR-3; OVCAR-3, Log10 Concentration 2.1): 26% | Percent Growth (OVCAR-3; OVCAR-3, Log10 Concentration −0.9): 102% | Percent Growth (OVCAR-3; OVCAR-3, Log10 Concentration −1.9): 99% | Growth Percent (OVCAR-3; OVCAR-3, one dose): 94.57% | GI50 (OVCAR-3; OVCAR-3, in µg/mL): 4.90E1 | TGI (OVCAR-4; OVCAR-4): >1.25E2 | Percent Growth (OVCAR-4; OVCAR-4, Log10 Concentration 0.1): 102% | Percent Growth (OVCAR-4; OVCAR-4, Log10 Concentration 1.1): 107% | Percent Growth (OVCAR-4; OVCAR-4, Log10 Concentration 2.1): 62% | Percent Growth (OVCAR-4; OVCAR-4, Log10 Concentration −0.9): 102% | Percent Growth (OVCAR-4; OVCAR-4, Log10 Concentration −1.9): 103% | Growth Percent (OVCAR-4; OVCAR-4, one dose): 98.08%
